Measurements: patent US5935811

Biological target: T1, NRSF/REST (lambda-HZ4 partial) (Homo sapiens) (UniProt Q13127)
T1 sequence: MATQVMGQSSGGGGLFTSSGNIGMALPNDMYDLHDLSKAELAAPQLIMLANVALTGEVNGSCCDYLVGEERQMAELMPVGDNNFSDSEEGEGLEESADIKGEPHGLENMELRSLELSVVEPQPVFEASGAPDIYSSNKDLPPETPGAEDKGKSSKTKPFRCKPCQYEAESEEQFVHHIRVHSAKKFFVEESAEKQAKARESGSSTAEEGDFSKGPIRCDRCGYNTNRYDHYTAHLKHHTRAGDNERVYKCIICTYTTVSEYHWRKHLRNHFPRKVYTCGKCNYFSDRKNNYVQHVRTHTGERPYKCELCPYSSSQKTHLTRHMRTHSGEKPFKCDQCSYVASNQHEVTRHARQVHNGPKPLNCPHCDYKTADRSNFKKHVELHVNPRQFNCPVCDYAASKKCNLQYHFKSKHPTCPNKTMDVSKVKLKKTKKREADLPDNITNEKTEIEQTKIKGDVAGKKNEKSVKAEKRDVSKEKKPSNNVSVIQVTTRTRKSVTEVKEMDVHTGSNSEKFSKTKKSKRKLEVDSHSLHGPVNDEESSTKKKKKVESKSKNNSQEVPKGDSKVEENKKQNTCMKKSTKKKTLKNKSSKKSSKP
Experiment: cell_activity
Conditions: pCAT3 reporter, maximum pCMV-HZ4, PC12 cells

pCAT3 SCG10 proximal promoter without NRSE
activity (fold repression): 1.5
